Assays:
[1] = biological target: Bacillus anthracis Protective Antigen (Bacillus anthracis, UniProt P13423 30-764); test: SPR (BIAcore 3000), PA amine-coupled to CM5 chip, antibody as analyte
[2] = biological target: T1, GST fusion of protective antigen domains 3 to 4 (Bacillus anthracis, UniProt P13423 517-764); test: ELISA, plate coated with GST-PA domain protein, goat anti-human IgG HRP
T1 construct: domain: 3 to 4

[3] = biological target: T2, GST fusion of protective antigen domains 1 to 4 (Bacillus anthracis, UniProt P13423 30-764); test: as above
T2 construct: domain: 1 to 4
T2 sequence (P13423 30-764 limits assumed): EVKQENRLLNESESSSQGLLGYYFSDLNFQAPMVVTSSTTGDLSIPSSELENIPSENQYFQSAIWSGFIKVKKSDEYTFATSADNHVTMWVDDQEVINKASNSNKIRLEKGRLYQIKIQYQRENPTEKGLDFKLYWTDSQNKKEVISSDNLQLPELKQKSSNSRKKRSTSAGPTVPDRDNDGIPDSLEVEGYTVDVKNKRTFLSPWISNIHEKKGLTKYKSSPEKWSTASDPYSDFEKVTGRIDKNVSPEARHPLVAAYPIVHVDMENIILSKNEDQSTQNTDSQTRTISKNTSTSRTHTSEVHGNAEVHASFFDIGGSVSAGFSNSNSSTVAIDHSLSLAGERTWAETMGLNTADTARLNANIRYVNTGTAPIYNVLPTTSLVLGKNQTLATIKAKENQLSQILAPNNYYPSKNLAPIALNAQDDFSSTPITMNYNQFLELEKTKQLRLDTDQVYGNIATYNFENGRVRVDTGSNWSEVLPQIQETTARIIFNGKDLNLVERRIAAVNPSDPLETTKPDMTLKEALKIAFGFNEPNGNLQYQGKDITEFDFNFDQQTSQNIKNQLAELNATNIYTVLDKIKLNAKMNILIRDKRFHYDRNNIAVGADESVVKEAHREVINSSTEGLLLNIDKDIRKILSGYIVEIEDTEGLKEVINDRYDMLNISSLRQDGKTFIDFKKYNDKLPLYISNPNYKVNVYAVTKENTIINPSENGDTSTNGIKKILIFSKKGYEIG

[4] = biological target: T3, GST fusion of protective antigen domains 1 to 3 (Bacillus anthracis, UniProt P13423 30-624); test: as above
T3 construct: domain: 1 to 3
T3 sequence (P13423 30-624 limits assumed): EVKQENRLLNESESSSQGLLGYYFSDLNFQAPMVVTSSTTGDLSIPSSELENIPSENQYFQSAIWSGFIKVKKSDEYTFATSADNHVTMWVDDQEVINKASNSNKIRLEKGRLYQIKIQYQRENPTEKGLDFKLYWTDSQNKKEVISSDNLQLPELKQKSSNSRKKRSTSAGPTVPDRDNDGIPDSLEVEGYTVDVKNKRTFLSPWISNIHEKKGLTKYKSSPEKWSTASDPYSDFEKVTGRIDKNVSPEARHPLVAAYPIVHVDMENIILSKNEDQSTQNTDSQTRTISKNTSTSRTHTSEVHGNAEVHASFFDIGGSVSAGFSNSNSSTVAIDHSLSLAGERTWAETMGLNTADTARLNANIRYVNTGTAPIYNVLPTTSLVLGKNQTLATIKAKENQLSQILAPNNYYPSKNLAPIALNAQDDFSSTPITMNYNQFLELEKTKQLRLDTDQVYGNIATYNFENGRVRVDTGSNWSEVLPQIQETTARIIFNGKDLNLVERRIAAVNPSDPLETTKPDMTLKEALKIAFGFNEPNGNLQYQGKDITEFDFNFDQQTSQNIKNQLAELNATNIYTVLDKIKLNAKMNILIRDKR

[5] = biological target: T4, GST fusion of protective antigen domains 1 to 2 (Bacillus anthracis, UniProt P13423 30-516); test: as above
T4 construct: domain: 1 to 2
T4 sequence (P13423 30-516 limits assumed): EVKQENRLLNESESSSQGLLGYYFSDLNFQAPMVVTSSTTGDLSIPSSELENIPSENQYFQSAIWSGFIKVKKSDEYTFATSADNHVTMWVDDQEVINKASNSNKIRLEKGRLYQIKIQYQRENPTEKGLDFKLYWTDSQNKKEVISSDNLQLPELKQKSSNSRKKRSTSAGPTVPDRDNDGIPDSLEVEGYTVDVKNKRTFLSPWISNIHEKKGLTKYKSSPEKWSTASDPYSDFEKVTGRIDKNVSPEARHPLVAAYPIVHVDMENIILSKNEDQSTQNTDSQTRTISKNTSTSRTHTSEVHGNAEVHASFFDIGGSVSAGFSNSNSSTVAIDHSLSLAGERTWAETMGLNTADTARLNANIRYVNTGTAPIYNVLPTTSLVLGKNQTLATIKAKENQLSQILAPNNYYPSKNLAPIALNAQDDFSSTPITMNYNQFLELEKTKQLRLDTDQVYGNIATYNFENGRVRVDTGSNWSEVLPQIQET

[6] = biological target: T5, GST fusion of protective antigen domain 1 (Bacillus anthracis, UniProt P13423 30-287); test: as above
T5 construct: domain: 1
T5 sequence (P13423 30-287 limits assumed): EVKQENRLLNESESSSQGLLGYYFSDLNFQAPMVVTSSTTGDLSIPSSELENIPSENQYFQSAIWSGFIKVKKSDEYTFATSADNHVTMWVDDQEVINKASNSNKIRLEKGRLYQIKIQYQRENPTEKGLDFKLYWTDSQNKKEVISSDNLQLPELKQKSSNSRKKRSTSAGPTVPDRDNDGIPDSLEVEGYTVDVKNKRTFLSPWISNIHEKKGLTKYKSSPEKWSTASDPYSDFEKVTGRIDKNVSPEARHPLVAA

[7] = biological target: T6, GST fusion of protective antigen domain 4 (Bacillus anthracis, UniProt P13423 625-764); test: as above
T6 construct: domain: 4
T6 sequence (P13423 625-764 limits assumed): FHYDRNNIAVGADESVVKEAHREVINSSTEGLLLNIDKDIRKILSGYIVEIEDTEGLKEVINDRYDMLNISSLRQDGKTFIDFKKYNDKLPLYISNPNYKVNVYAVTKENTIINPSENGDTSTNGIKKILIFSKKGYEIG

Sequence of Bacillus anthracis Protective Antigen (P13423 30-764 limits assumed): as the sequence (P13423 30-764 limits assumed) above
T1 sequence (P13423 517-764 limits assumed): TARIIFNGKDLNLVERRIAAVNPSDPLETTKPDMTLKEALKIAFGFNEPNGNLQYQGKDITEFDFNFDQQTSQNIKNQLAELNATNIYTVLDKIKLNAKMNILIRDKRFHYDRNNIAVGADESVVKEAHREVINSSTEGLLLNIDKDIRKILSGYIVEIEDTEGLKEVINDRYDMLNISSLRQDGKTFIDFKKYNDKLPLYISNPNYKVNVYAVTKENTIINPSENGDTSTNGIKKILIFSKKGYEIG

Row | Binder | Ka [1] | Kd [1] | koff [1] | kon [1] | End point titre [2] | End point titre [3] | End point titre [4] | End point titre [5] | End point titre [6] | End point titre [7]
1 | human monoclonal antibody IQNPA-1 (antibody, V domains shown) VH: QVQLVQSGAEVKKPGASVKVSCKASGYTFTSNAIQWVRQAPGQRLEWVGWINGGDGNTKYSQKFQGRVTISRDISASTAYMELSSLRSEDTAVYYCARHRLQRGGFDPWGQGTLVTVSS VL: EIVLTQSPGTLSLSPGERATLSCRASQSVSYSSLAWYQQKPGQAPSLLIYGASSRATGIPDRFSGSGSGPDFTLTISRLEPEDFAVYYCQHYGNSPYTFGQGTKLEIKR | 8.31e+09 M⁻¹ | 0.12 nM | 1.93e-05 s⁻¹ | 160000 M⁻¹ s⁻¹ | 256000 | 256000 | < 100 | < 100 | < 100 | 256000
2 | human monoclonal antibody IQNPA-2 (antibody, V domains shown) VH: QVQLVQSGAEVKKPGASVKVSCKASGYTFTSNAIQWVRQAPGQRLEWVGWINGGDGNTKYSQKFQGRVTISRDISASTAYMELSSLRSEDTAVYYCARHRLQRGGFDPWGQGTLVTVSS VL: EIVLTQSPGTLSLSPGERATLSCRASQSVSYSSLAWYQQKPGQAPSLLIYGASSRATGIPDRFSGSGSGPDFTLTISRLEPEDFAVYYCQHYGNSPYTFGQGTKLEIKR | 9.86e+09 M⁻¹ | 0.101 nM | 1.81e-05 s⁻¹ | 178000 M⁻¹ s⁻¹ | 256000 | 128000 | < 100 | < 100 | < 100 | 128000
